This note sets out measurements from patent US20170073406A1.

In test [1] the target is biotinylated His-tagged TGF-β1 LAP C4S (Homo sapiens (Human)) (UniProt P01137). Kind of test: ELISA, neutravidin plate with biotinylated His-tagged TGF-β1 LAP C4S; antibody dilution 1:1,000; fluorescent secondary detection. Background: In an ELISA, binding on a coated surface is turned into a signal by an enzyme label.
Test [2] has the same target. The experiment in a line: ELISA, neutravidin plate with biotinylated His-tagged TGF-β1 LAP C4S; antibody dilution 1:5,000; fluorescent secondary detection.
Test [3] shares this target. Kind of test: ELISA, neutravidin plate with biotinylated His-tagged TGF-β1 LAP C4S; antibody dilution 1:10,000; fluorescent secondary detection.

Sequence of biotinylated His-tagged TGF-β1 LAP C4S (Homo sapiens (Human)) (P01137 other isoform, or with tags, fused parts or gaps limits assumed): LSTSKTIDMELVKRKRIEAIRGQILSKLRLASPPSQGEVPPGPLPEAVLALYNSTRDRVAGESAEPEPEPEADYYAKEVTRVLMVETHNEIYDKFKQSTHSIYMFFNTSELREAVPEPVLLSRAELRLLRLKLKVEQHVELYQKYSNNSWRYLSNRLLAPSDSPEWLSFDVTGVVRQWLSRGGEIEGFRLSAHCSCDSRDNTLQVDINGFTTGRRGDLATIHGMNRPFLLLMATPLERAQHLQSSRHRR

B1: 1D11 antibody (mouse monoclonal anti-TGF-β1, 2 and 3 antibody, R&D Systems, Minneapolis, Minn.) (antibody, from another filing, V domains shown)
VH: QVQLQQSGPELVRPGASVKLSCKASGYIFITYWMNWVKQRPGQGLEWIGQIFPASGSTNYNEMFEGKATLTVDTSSSTAYMQLSSLTSEDSAVYYCARGDGNYALDAMDYWGQGTSVTVSS
VL: DIVLTQSPASLAVSLGQRATISCRASESVDSYGNSFMHWYQQKSGQPPKLLIYLASNLESGVPARFSGSGSRTDFTLTIDPVEADDAATYYCQQNNEDPLTFGAGTKLEIK
As for B1, the figures for the RFU in test [1], in test [2] and in test [3] were 218 RFU, 214 RFU and 198 RFU, respectively.
